Measured values reported in the DeepSol protein solubility set.

Assay: soluble on expression in E. coli; label from the status in PepcDB or PDB records

Soluble on expression in E. coli, soluble:
MNVSVVIPALNEEATVADVVALSRRGSDEVIVIDSDSTDATAARAKAAGASVVNWRDVVSLPPIPGKGEALWRGVAAARGDVVVFLDADLTEISPTIVEDLARPFIDDSVMLAKAAYTRGDASGGGGRVTELTARPLLEAFFPELGFVRQPLGGEYAIRRSAALDLPFVGGYGVEVGLLIDVFRCFGAASIVEVEAGHRGHRHRPLRELAPMARVVASTILQRAGVASGLDGVGQRPAISSLESGVGKVLEHHHHHH
YPQVIVDHPFLYLIRNRKSGIILFMGRVMNPHH
GPGSMSLEGKVALITGAGSGFGEGMAKRFAKGGAKVVIVDRDKAGAERVAGEIGDAALAVAADISKEADVDAAVEAALSKFGKVDILVNNAGIGHKPQNAELVEPEEFDRIVGVNVRGVYLMTSKLIPHFKENGAKGQECVILNVASTGAGRPRPNLAWYNATKGWVVSVTKALAIELAPAKIRVVALNPVAGETPLLTTFMGEDSEEIRKKFRDSIPMGRLLKPDDLAEAAAFLCSPQASMITGVALDVDGGRSIGGRSI

Soluble on expression in E. coli, not soluble:
MGSDKIHHHHHHMPLSMNREVFITCAVTGSGGTQDRSPHVPRSPKEIAESAIAAAKAGAAIVHCHVRDPETGAPSRDLGLYREVTDRIRESDTDVVLNLTAGMGGDIVFGGVERPLPVTEDGTDMIGASARVAHVAECLPEICTLDCGTMNFAEADYVMTNTPGMLQAMGQMMTDLGVKPEIEAFDTGHLWYAKQLVKDGVLKSDALVQLCMGVPWGAPNDLNTFMAMVNNVPDDWNWSAFSLGRDQMAYVAASVLAGGNVRVGLEDNLYLDKGVLAENWQLVERAGTIVSNLGARVITPAEVREKLGLQKRAPITK
MSLSETLRLGLICAGRMGSFHGQTAALRIPGACLAAIADPTPGQAARLATELGVERFYTDPQQLLDDPDIDGVLIAAPARSHAELVISAARAGKGVFCEKPMAITLDEADRAIAAAADAQVTLQVGFNRRFAKSFRTAHLDVVAGRIGTPQLLRSLTRDPALNNPAASPQWVIFLETLIHDFDSLRYLNPGAEAVEVFVMADALIAPDYKSKGFLDTAVVTIRFDNGAIATAEANFQAVYGYDVRGEVFGSAGMLTMGSVNDSDLVRYLANGIQSDTQRLDTDLLRDAYVAELNHFADCLRTGAKPLASGEDARAALAIARACIESFQLGKAVRVEGARSEGHHHHHH
MGSDKIHHHHHHMDELVDGERESGRAALGRTLRLLREKSGKTLGQLAGETSYDKSYLYRLETGERLSKRAVMEDLDRYHGSGDLLVRLWRDARKDVIKDKYKAFMELEATARVMWKFQLRVPGLLQTEDYARVVLSGLSRAQTTAGNGEEVEEQVAARVGRQEMLHRQPAPSVRVILDEGALRRRVPKEKVWADQLVHLVDVAELASVTLQVLPFTAGVHDLMNSDLTLMWQRVGEPVAYVEGNGFGELVDDPDKVLSYRLSYDLVRDAALTPAESTTFIKRLLEECRS
MGSDKIHHHHHHMIHFVPPHLEKVRAKLPEIAPTVDVILANLEDAIPADAKGAALAGLVAMSREVDFKALGVGFWTRINCLNSPWHLDEIATIVEKAGDKIDVIMVPKVEGPWDIFYMDQLLASLEAKHGVTRPILLHAILETAEGVMNVEAIAAASPRMQGISLGPADLAASRAMKTTRVGGGHPGYRVIEDPHADGSARVSVQQDLWHYTFAKMVDACAAHGIKPFYGPFGAIDDPVACEQQFRNAFLMGCAGAWSLHPSQIEIAKRVFSPDPAEVAFAKKILEAMPDGTGVAMIDGKMQDDATWKQAKVMVDCARQIAGKDAEYAGLYGL
MGSDKIHHHHHHMEVVGRSRAKAIIETHLNDSLVYFSDHVRILKCNPYCTGVTYLKEHGVYQWIFQVNDPRENPITAVFFVTQNEEHLDSSRTVPAGPVSEEESFPDSAVSGRCIQWVNAPQVPDVPLKEKNTFVGQANTRICLYPLEDRRTEVHFETDITLDFELSFPLNLMPEGILKFMTEAVMSKIMQQATESMLCQVQSDLCCCTTAELDASGGKV
MGSDKIHHHHHHMLYDVAIIGGGPSGAAAAEILARAGHSTILIERNLANVKPCGGAIPLGLIEEFDIPDELVEKKLTRMSVRSPKGETIFMHMPNGYVGMVRRERFDRYLREKAQKAGAEVVEALVKKIERSVDRFTLQLFNKEGEALPPVEASYVIGADGANSKTADELGFPPNDLKVIAMQQRFHYCDELKPYEELVEIWFDGEVSPDFYGWIFPKTDHIAIGTGTEEHRNDIKQLQHRFVEKIGIAEKPYLNEAAKIPMKPRRSFTQERAILVGDAAGLVTPANGEGIFFAMRSGKLGAEAMIERIRNNTPLSSYEKKFRKLYSPIFFGLQVLQSVYYKSDRLRESFVAICRDKDVQGITFDSYLYKKMVPAPWSVQMKIMAKNIYHLAKGS
MTEPRSYTIEEIASLLKVSKLTVYDLVKKGKLPAFRVGRQMRITADDLRRFIAGQKGEASTVFSAVSRPTETAFRPIIISGQDMALDLLGVHLEKGGPYQSLRTYTSSLNGLIALYKGQCDIVSVHLFDGQTGEYNRPYVEKLLTGHAYIMVNLMRRPIGFYVPKGNPRGIHTWSDLGRSDVVIVNREKGAGARVLLDEQLRLHGLSPSAIRGYEREETSHLSVASAVAAGLADVGIGTEKVARMAGVEFIPLMNEQYDVVMLRTPENESLIASVLDVLRSDSFRAELEALGGYDVSQTGRIMAEYG
MNVYRNQLIQLLPEITELKNLTTLDLSLNKLTQLPPEIGELNNLKTLYSSSNQLTQLPLEITKLKNLTELYLSSNLMIRLPLEITELKNLTTLNVYRNQLIQLPSKITELKNLKKLDLSRNQLAQLPPEIAELKNLTTLDLSRNQLAQLPPEIAELKNLTTLDLFENPLISLEHHHHHH
TVSQLRSRITRFALAGRGMRETVTWSFISEKQALAFGGGQAQLKLVNPISADMSVMRPSLLPGLLVAAQRNADRGFPDFALFEVSNIYEDDTPDKQHRVAGGIRRGTEQFGGAGRFWNGNARAVDVFDAKADALAVLEACGLESGKVQIEVGAPDWYHPGRSGVIKLGSKIILGFFGVFHPATLEKLDISGPLCGFEIFL
